Laboratory results taken from patent US20180147232.

Sequence of Flag-TSC2, P49815 (P49815 whole entry): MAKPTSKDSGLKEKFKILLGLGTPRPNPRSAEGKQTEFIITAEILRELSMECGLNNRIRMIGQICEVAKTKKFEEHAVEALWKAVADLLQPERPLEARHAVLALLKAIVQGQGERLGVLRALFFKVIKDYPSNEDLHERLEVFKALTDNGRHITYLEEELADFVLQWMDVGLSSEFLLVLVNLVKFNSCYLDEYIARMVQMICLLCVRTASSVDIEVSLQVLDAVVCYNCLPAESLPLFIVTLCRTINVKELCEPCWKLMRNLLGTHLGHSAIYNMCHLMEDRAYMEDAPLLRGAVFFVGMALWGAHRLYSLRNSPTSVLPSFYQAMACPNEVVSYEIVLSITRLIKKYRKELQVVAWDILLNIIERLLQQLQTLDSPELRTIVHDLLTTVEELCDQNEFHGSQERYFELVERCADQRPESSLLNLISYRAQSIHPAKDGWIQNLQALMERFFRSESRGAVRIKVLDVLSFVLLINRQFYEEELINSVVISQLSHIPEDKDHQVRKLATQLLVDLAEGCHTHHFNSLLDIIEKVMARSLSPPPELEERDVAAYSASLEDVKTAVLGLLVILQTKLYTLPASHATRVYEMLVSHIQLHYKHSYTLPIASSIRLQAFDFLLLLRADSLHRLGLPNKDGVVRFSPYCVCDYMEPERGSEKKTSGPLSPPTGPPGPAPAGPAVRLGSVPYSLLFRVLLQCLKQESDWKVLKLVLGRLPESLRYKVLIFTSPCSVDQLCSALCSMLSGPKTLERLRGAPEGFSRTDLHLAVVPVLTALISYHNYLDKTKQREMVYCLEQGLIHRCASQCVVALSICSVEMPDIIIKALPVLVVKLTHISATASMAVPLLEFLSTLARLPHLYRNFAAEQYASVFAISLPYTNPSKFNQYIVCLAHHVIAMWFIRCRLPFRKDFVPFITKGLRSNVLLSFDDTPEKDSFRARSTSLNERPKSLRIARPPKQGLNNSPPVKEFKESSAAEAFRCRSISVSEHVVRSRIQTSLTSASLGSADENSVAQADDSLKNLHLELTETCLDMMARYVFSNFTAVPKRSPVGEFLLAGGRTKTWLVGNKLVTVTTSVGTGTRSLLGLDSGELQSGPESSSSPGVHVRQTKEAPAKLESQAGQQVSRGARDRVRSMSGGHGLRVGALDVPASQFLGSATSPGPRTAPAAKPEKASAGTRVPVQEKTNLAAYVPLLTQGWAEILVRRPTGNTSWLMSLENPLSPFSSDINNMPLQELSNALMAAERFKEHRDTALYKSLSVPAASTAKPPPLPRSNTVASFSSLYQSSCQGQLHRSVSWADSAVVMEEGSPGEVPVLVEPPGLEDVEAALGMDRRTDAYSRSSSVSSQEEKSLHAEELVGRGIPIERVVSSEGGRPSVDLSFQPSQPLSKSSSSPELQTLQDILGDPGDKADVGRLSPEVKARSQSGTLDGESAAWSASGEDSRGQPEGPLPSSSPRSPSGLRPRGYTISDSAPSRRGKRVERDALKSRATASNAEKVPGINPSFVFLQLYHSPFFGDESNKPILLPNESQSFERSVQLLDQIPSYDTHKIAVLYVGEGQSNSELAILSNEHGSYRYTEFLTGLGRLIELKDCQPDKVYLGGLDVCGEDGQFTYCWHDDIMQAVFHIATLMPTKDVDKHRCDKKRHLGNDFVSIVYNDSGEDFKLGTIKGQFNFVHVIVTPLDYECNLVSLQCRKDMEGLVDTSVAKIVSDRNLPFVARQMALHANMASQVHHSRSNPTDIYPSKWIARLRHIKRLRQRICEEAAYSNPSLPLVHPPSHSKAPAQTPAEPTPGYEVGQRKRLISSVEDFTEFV
Sequence of Flag-TSC2 6A, P49815 (P49815 other isoform, or with tags, fused parts or gaps): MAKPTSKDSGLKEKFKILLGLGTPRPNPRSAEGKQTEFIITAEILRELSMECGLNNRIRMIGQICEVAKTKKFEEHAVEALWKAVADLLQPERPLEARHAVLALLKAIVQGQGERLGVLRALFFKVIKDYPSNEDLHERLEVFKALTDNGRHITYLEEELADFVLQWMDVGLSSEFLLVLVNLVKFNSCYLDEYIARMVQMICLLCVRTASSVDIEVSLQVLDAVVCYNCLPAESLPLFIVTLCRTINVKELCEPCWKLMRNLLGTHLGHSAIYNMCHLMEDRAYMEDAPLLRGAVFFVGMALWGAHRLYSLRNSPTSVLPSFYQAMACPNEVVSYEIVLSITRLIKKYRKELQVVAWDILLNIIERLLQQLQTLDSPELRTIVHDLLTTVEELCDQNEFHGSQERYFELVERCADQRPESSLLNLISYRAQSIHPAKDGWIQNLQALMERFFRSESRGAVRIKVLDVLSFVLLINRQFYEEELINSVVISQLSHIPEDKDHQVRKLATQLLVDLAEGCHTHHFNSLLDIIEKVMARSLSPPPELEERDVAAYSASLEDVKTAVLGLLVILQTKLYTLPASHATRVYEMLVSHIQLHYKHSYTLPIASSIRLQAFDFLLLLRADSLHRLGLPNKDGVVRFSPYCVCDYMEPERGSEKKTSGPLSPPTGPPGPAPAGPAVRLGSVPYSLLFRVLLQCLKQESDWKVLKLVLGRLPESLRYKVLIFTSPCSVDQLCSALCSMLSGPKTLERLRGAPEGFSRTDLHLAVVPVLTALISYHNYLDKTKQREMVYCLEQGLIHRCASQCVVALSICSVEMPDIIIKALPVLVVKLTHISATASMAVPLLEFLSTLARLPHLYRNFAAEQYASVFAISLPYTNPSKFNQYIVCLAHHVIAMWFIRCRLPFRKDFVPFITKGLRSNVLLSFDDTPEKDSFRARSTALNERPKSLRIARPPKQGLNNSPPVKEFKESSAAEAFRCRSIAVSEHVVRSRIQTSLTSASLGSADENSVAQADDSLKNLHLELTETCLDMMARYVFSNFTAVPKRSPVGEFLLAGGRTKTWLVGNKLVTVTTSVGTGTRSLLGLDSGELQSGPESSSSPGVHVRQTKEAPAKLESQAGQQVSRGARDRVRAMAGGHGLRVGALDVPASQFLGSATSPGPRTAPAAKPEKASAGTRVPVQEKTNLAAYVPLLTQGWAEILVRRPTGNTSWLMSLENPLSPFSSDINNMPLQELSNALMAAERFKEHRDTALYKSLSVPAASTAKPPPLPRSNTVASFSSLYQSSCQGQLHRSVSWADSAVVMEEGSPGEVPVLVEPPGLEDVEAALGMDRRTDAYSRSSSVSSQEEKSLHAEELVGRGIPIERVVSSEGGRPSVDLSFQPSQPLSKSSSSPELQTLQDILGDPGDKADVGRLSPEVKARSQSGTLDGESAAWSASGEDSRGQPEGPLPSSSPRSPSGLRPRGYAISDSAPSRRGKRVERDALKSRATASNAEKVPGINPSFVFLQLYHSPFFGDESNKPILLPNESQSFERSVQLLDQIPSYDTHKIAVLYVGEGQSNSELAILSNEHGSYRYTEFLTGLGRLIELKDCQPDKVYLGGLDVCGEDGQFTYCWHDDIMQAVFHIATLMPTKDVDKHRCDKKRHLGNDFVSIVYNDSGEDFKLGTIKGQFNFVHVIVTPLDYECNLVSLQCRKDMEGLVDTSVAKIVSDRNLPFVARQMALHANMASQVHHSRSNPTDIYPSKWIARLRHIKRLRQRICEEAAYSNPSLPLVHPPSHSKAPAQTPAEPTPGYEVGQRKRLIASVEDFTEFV

B1: recombinant His-SGK1 (Δ60) (protein)
chain: ISQPQEPELMNANPSPPPSPSQQINLGPSSNPHAKPSDFHFLKVIGKGSFGKVLLARHKAEEVFYAVKVLQKKAILKKKEEKHIMSERNVLLKNVKHPFLVGLHFSFQTADKLYFVLDYINGGELFYHLQRERCFLEPRARFYAAEIASALGYLHSLNIVYRDLKPENILLDSQGHIVLTDFGLCKENIEHNSTTSTFCGTPEYLAPEVLHKQPYDRTVDWWCLGAVLYEMLYGLPPFYSRNTAEMYDNILNKPLQLKPNITNSARHLLEGLLQKDRTKRLGAKDDFMEIKSHVFFSLINWDDLINKKITPPFNPNVSGPNDLRHFDPEFTEEPVPNSIGKSPDSVLVTASVKEAAEAFLGFDYAPPTDSFL
phosphorylation of S939, S981, T993, S1130, S1132, T1462 and S1798 of TSC2 by mass spectrometry after the in vitro kinase assay (Flag-TSC2, P49815): we found increased phosphorylation in all these sites, except at T993 | phosphorylation of the RXRXX(S/T) sites of TSC2, in vitro kinase assay (Flag-TSC2, P49815): The addition of recombinant SGK1 kinase increased the phosphorylation of the RXRXX(S/T) (SEQ ID NO: 1) sites of TSC2 independent of the AKT activity | phosphorylation of TSC2, in vitro kinase assay (Flag-TSC2 6A, P49815): Mutation of these six sites into the non-phosphorylatable amino acid alanine (TSC2 6A) completely abrogated the ability of SGK1 to phosphorylate TSC2 in vitro
